# Experimental data as given in patent US20070207154A1, “METHOD OF MODULATING VASCULARIZATION” (priority 2004, published 2007).
# System: sprouting from wild-type, TFΔCT and PAR-2-deficient aortas
# Assay: ex vivo angiogenesis assay (aortic ring sprouting in Matrigel)
# Format: cell-based, mouse
# Settings: wild-type and TFΔCT aortas, EGM without serum, day 4; growth factors 20 ng/ml, VIIa 50 nM (FIG. 2c)
# Method: Angiogenesis assays. The ex vivo angiogenesis assay was adopted from the rat aortic sprouting model described by Masson et al. Biol. Proced. […] Thoracic aortas from 8-11 week old wild-type, TFΔCT, PAR-2-deficient, and TFΔCT/PAR-2-deficient mice of either sex were embedded in Matrigel, and overlaid with EGM supplemented with 5% serum, growth factors, or inhibitors at the following concentrations: VEGF, bFGF, and PDGF: 20 ng/ml; hirudin: 500 nM, VIIai: […], NAPc2: […], NAP5: 1 μM, VIIa: 50 nM. In most cases, the number of aortic sprouts was determined at day 3 and 4 without knowledge of the genotype. Aortic ring RNA was isolated by Trizol (Invitrogen) extraction using standard procedures, digested with DNAaseI, followed by RT-PCR for β-actin and TF. […] Tests used 2 different virus doses, referred to as high (1.1×10^10 virus particles/ml) and low (5×10^9 particles/ml). For confocal fluorescence microscopy, aortic pieces with a minimum of surrounding Matrigel were fixed with 4% paraformaldehyde and methanol, incubated with primary and secondary antibodies (24 hours each), and mounted in anti-fade medium (Vector laboratories). Alternatively, cryosections of OCT-embedded aortas were fixed with acetone and stained as described above.
molecule,measurement,value
"PDGF-BB: platelet-derived growth factor BB, activates PDGF receptor β (protein, UniProt P01127 82-190, looked up, BB homodimer) Platelet-derived growth …: SLGSLTIAEPAMIAECKTRTEVFEISRRLIDRTNANFLVWPPCVEVQRCSGCCNNRNVQCRPTQVQLRPVQVRKIEIVRKKPIFKKATVTLEDHLACKCETVAAARPVT",sprouting induced by single factor replacing serum,None of these factors promoted substantial sprouting
